The experiment addresses GST-NTF2L (GST-tagged NTF2-like domain of G3BP1) (human). As to the kind of experiment: SPR.

Kd data for two molecules are collected here from paper PMC11044841 (2024).

Sequence of GST-NTF2L (GST-tagged NTF2-like domain of G3BP1) (human) (chain, as listed by the source): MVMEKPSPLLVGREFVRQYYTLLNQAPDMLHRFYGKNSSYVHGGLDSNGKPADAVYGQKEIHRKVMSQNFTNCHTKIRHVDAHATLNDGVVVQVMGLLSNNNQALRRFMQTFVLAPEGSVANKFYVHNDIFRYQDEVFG

What is called Kd is the equilibrium constant for the complex coming apart. The low end stands for tighter binding, the high end for weaker binding. Take MALHSPQYIFGDFSPDEFNQFFVTP [USP10 (1–25) peptide]: the equilibrium dissociation constant (Kd) worked out at 110 nM.
For the molecule LTFGDFDEHEVDALASGITFGDFDD [SFV nsP3 (449–473) peptide], the Kd was 2500 nM.
